Assay results from PMC9251316, “Engineering the Active Site Pocket to Enhance the Catalytic Efficiency of a Novel Feruloyl Esterase Derived From Human Intestinal Bacteria Dorea formicigenerans” (Frontiers in Bioengineering and Biotechnology, 2022).

Columns and labels:
[1] = target: feruloyl esterase from Dorea formicigenerans (DfFAE) (Dorea formicigenerans); test: SEC; Superdex 200 Increase 10/300 GL; elution volume 12.9 ml; mass markers conalbumin 75 kDa and aldolase 158 kDa; apparent MW about 117 kDa
purified protein [2] = substrate: CC(=O)Oc1ccc([N+](=O)[O-])cc1; test: purified protein; type: biochemical, Dorea formicigenerans; conditions: 10 mM Tris-HCl pH 8.4, 2.5% Triton X-100, 40 °C
purified protein [3] = substrate: CCCC(=O)Oc1ccc([N+](=O)[O-])cc1; test: purified protein; type: biochemical, Dorea formicigenerans; conditions: 10 mM Tris-HCl pH 8.4, 2.5% Triton X-100, 40 °C
purified protein [4] = substrate: CCCCCCCC(=O)Oc1ccc([N+](=O)[O-])cc1; test: purified protein; type: biochemical, Dorea formicigenerans; conditions: 10 mM Tris-HCl pH 8.4, 2.5% Triton X-100, 40 °C

feruloyl esterase from Dorea formicigenerans (DfFAE) (enzyme)
stoichiometry N [1]: 3

B1: DfFAE (Dorea formicigenerans; N156A) (protein)
chain: MNQKKECMDVHVNGLKFHVQTFGSGVPIIMIMGLGAPGDKWKHNYELLSKWFWCIVPDNRGAGLSDKPEAESYTTEQMADDIIGIMDALDIKKAHVMGVSMGGAIAQQVALKVPDRVLSLILTSTFASVSPAFKKALNLICELKEDTDPAVLKQLALWMTYGQYTQIHHPEKIEKSIEEDAAYPYPMPVYAYKAQCGACLSHNTAGRLHELKMPVLIAAGAKDLFMNIEKTMELVHGIPQAEFYLAPEGGHVHQWEYPEPYDSVVVGFLMKHTN
notes: E. coli T7; trimeric by SEC (117 kDa)
Km (purified protein [2]): 644.7 ± 40.59 µM
kcat (purified protein [2]): 14.8 ± 0.333 s⁻¹
kcat/Km (purified protein [2]): 22940 ± 85.5 M⁻¹ s⁻¹
Km (purified protein [3]): 334.3 ± 43.69 µM
kcat (purified protein [3]): 2.85 ± 0.0997 s⁻¹
kcat/Km (purified protein [3]): 8520 ± 166 M⁻¹ s⁻¹

B2: DfFAE (Dorea formicigenerans; P186A) (protein)
chain: MNQKKECMDVHVNGLKFHVQTFGSGVPIIMIMGLGAPGDKWKHNYELLSKWFWCIVPDNRGAGLSDKPEAESYTTEQMADDIIGIMDALDIKKAHVMGVSMGGAIAQQVALKVPDRVLSLILTSTFASVSPAFKKALNLICELKEDTDPAVLKQLNLWMTYGQYTQIHHPEKIEKSIEEDAAYPYAMPVYAYKAQCGACLSHNTAGRLHELKMPVLIAAGAKDLFMNIEKTMELVHGIPQAEFYLAPEGGHVHQWEYPEPYDSVVVGFLMKHTN
notes: as for B1
Km (purified protein [2]): 824 ± 242.1 µM
kcat (purified protein [2]): 11.3 ± 1.21 s⁻¹
kcat/Km (purified protein [2]): 13700 ± 400 M⁻¹ s⁻¹

B3: DfFAE (Dorea formicigenerans; V252A) (protein)
chain: MNQKKECMDVHVNGLKFHVQTFGSGVPIIMIMGLGAPGDKWKHNYELLSKWFWCIVPDNRGAGLSDKPEAESYTTEQMADDIIGIMDALDIKKAHVMGVSMGGAIAQQVALKVPDRVLSLILTSTFASVSPAFKKALNLICELKEDTDPAVLKQLNLWMTYGQYTQIHHPEKIEKSIEEDAAYPYPMPVYAYKAQCGACLSHNTAGRLHELKMPVLIAAGAKDLFMNIEKTMELVHGIPQAEFYLAPEGGHAHQWEYPEPYDSVVVGFLMKHTN
notes: as for B1
Km (purified protein [2]): 288.9 ± 53.8 µM
kcat (purified protein [2]): 12.8 ± 0.51 s⁻¹
kcat/Km (purified protein [2]): 44130 ± 226 M⁻¹ s⁻¹
Km (purified protein [3]): 83.61 ± 8.65 µM
kcat (purified protein [3]): 1.07 ± 0.0216 s⁻¹
kcat/Km (purified protein [3]): 12830 ± 124 M⁻¹ s⁻¹
Km (purified protein [4]): 99.87 ± 18.76 µM
kcat (purified protein [4]): 0.52 ± 0.018 s⁻¹
kcat/Km (purified protein [4]): 5200 ± 222 M⁻¹ s⁻¹

B4: DfFAE (Dorea formicigenerans) (protein)
chain: MNQKKECMDVHVNGLKFHVQTFGSGVPIIMIMGLGAPGDKWKHNYELLSKWFWCIVPDNRGAGLSDKPEAESYTTEQMADDIIGIMDALDIKKAHVMGVSMGGAIAQQVALKVPDRVLSLILTSTFASVSPAFKKALNLICELKEDTDPAVLKQLNLWMTYGQYTQIHHPEKIEKSIEEDAAYPYPMPVYAYKAQCGACLSHNTAGRLHELKMPVLIAAGAKDLFMNIEKTMELVHGIPQAEFYLAPEGGHVHQWEYPEPYDSVVVGFLMKHTN
notes: as for B1
Km (purified protein [2]): 572 ± 56.57 µM
kcat (purified protein [2]): 4.42 ± 0.165 s⁻¹
kcat/Km (purified protein [2]): 7730 ± 136 M⁻¹ s⁻¹
Km (purified protein [3]): 357.3 ± 68.62 µM
kcat (purified protein [3]): 0.798 ± 0.0436 s⁻¹
kcat/Km (purified protein [3]): 2230 ± 247 M⁻¹ s⁻¹
Km (purified protein [4]): 526.2 ± 73.57 µM
kcat (purified protein [4]): 0.186 ± 0.00865 s⁻¹
kcat/Km (purified protein [4]): 354 ± 186 M⁻¹ s⁻¹

B5: DfFAE (Dorea formicigenerans; W255A) (protein)
chain: MNQKKECMDVHVNGLKFHVQTFGSGVPIIMIMGLGAPGDKWKHNYELLSKWFWCIVPDNRGAGLSDKPEAESYTTEQMADDIIGIMDALDIKKAHVMGVSMGGAIAQQVALKVPDRVLSLILTSTFASVSPAFKKALNLICELKEDTDPAVLKQLNLWMTYGQYTQIHHPEKIEKSIEEDAAYPYPMPVYAYKAQCGACLSHNTAGRLHELKMPVLIAAGAKDLFMNIEKTMELVHGIPQAEFYLAPEGGHVHQAEYPEPYDSVVVGFLMKHTN
notes: as for B1
Km (purified protein [2]): 809.7 ± 182.4 µM
kcat (purified protein [2]): 12.1 ± 0.891 s⁻¹
kcat/Km (purified protein [2]): 14900 ± 299 M⁻¹ s⁻¹
Km (purified protein [4]): 178.2 ± 13.66 µM
kcat (purified protein [4]): 2.87 ± 0.0543 s⁻¹
kcat/Km (purified protein [4]): 16100 ± 95.6 M⁻¹ s⁻¹

B6: DfFAE (Dorea formicigenerans; P149A) (protein)
chain: MNQKKECMDVHVNGLKFHVQTFGSGVPIIMIMGLGAPGDKWKHNYELLSKWFWCIVPDNRGAGLSDKPEAESYTTEQMADDIIGIMDALDIKKAHVMGVSMGGAIAQQVALKVPDRVLSLILTSTFASVSPAFKKALNLICELKEDTDAAVLKQLNLWMTYGQYTQIHHPEKIEKSIEEDAAYPYPMPVYAYKAQCGACLSHNTAGRLHELKMPVLIAAGAKDLFMNIEKTMELVHGIPQAEFYLAPEGGHVHQWEYPEPYDSVVVGFLMKHTN
notes: as for B1
Km (purified protein [2]): 803.7 ± 107.8 µM
kcat (purified protein [2]): 17.4 ± 0.809 s⁻¹
kcat/Km (purified protein [2]): 21690 ± 181 M⁻¹ s⁻¹
Km (purified protein [4]): 428.8 ± 35.31 µM
kcat (purified protein [4]): 1.08 ± 0.0243 s⁻¹
kcat/Km (purified protein [4]): 2510 ± 105 M⁻¹ s⁻¹
